Reference: PMC12319226 (Frontiers in Bioinformatics, 2025)

Legend:
Assay in all cases: BLI
[1] = target: chimeric antibody hJAR5 (mouse variable, human constant)
fHbp m000019 [2] = target: T1, fHbp m000019 (Neisseria meningitidis, fHbp v1.1 …, point mutant); conditions: both partners purified
T1 construct: also called Round 1 best mutant
T1 chain: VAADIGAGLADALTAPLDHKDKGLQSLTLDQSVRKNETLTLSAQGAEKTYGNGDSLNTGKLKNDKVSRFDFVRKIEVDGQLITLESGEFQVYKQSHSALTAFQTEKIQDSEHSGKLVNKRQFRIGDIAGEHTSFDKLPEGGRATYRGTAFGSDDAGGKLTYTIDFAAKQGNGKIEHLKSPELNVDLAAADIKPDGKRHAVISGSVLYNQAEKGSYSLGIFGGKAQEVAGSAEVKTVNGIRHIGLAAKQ

fHbp mutant 0012 = target: T2, fHbp mutant 0012 (Neisseria meningitidis, fHbp v1.1 mutant, point mutant); conditions: both partners purified
T2 chain: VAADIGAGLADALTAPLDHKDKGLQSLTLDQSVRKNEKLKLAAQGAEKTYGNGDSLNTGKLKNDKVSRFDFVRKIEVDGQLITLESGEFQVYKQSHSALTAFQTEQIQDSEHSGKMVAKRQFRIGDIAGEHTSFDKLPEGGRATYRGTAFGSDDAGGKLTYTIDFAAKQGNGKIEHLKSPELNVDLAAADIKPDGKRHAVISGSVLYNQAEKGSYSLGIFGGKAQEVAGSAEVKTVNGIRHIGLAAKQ

fHbp mutant 0017 = target: T3, fHbp mutant 0017 (Neisseria meningitidis, fHbp v1.1 mutant, point mutant); conditions: both partners purified
T3 chain: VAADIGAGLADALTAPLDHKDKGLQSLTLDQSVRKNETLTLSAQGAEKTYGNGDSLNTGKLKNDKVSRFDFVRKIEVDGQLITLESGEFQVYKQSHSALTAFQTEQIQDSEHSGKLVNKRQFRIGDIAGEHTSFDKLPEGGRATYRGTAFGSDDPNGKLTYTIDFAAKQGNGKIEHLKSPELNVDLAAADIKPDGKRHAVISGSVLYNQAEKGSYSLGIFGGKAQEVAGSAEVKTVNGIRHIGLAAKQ

fHbp m000019 [3] = target: T4, fHbp m000019 (Neisseria meningitidis, fHbp v1.1 …, point mutant); conditions: both partners purified
T4 chain: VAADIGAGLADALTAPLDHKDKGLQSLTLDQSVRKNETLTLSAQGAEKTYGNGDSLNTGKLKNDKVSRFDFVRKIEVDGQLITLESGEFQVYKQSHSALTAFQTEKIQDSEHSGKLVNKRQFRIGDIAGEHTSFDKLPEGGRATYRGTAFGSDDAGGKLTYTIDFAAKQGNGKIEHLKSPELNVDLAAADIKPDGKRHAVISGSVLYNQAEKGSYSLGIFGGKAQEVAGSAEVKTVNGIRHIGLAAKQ

fHbp mutant 0018 = target: T5, fHbp mutant 0018 (Neisseria meningitidis, fHbp v1.1 mutant, point mutant); conditions: both partners purified
T5 chain: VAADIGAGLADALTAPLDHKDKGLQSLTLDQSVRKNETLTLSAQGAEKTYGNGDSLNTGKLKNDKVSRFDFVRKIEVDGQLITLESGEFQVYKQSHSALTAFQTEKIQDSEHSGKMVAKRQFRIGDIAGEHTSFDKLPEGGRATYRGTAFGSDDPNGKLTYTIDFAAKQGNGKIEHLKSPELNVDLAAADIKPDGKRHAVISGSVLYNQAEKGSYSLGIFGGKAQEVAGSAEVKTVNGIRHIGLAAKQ

[4] = target: T6, factor H binding protein variant 1.1 (Neisseria meningitidis serogroup B …, UniProt Q9JXV4); conditions: both partners purified
T6 construct: also called fHbp v1.1; v1.1 Control (0001)

fHbp mutant 0015 = target: T7, fHbp mutant 0015 (Neisseria meningitidis, fHbp v1.1 mutant, point mutant); conditions: both partners purified
T7 chain: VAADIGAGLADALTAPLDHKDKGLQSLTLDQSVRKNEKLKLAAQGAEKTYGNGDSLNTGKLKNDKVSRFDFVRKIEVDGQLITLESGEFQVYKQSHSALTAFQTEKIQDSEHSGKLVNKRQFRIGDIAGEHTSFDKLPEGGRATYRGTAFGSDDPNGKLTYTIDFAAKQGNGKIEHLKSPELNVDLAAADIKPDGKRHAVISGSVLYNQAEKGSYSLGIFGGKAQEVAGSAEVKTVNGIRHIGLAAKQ

fHbp mutant 0016 = target: T8, fHbp mutant 0016 (Neisseria meningitidis, fHbp v1.1 mutant, point mutant); conditions: both partners purified
T8 chain: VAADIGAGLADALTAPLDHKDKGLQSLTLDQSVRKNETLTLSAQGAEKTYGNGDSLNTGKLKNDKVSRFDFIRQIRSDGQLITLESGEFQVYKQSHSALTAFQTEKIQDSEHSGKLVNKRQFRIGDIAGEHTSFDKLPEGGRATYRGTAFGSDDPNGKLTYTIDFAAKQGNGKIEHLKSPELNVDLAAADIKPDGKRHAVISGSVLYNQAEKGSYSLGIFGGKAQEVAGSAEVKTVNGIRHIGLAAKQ

fHbp mutant 0014 = target: T9, fHbp mutant 0014 (Neisseria meningitidis, fHbp v1.1 mutant, point mutant); conditions: both partners purified
T9 chain: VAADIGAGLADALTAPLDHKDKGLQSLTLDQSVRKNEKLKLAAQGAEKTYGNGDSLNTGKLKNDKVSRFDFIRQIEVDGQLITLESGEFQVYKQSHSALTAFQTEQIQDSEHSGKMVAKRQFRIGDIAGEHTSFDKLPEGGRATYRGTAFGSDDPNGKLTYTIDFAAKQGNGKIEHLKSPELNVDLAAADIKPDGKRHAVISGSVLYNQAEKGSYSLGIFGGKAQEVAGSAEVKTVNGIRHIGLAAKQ

Q: With fHbp CC9 (natural protein) as the molecule, how does the Kd [1] read?
A: 7.66 nM

Q: What about the koff [1] of the same molecule?
A: 0.00118 s⁻¹

Q: And the kon [1]?
A: 154000 M⁻¹ s⁻¹

Q: fHbp CC5 (natural protein) was tested. Which Kd [1] did it give?
A: 6.49 nM

Q: What about the koff [1] of the same molecule?
A: 0.00446 s⁻¹

Q: What about the kon [1] of the same molecule?
A: 687000 M⁻¹ s⁻¹

Q: What does the source list for fHbp CC8 (natural protein)?
A: Kd [1]: 3.58 nM; koff [1]: 0.002 s⁻¹; kon [1]: 558000 M⁻¹ s⁻¹

Q: Which Kd [1] does the source give for fHbp CC2 (natural protein) here?
A: 0.425 nM

Q: What about the koff [1] of the same molecule?
A: 0.000266 s⁻¹

Q: What about the kon [1] of the same molecule?
A: 625000 M⁻¹ s⁻¹

Q: fHbp CC4 (natural protein) was tested. Which Kd [1] did it give?
A: 6.92 nM

Q: What about the koff [1] of the same molecule?
A: 0.00561 s⁻¹

Q: What about the kon [1] of the same molecule?
A: 811000 M⁻¹ s⁻¹

Q: With fHbp CC3 (natural protein) as the molecule, how does the Kd [1] read?
A: 1.2 nM

Q: And the koff [1]?
A: 0.00241 s⁻¹

Q: What about the kon [1] of the same molecule?
A: 2.01e+06 M⁻¹ s⁻¹

Q: How did the Kd [1] turn out when fHbp CC1 (natural protein) was run?
A: 3.86 nM

Q: And the koff [1]?
A: 0.00268 s⁻¹

Q: What about the kon [1] of the same molecule?
A: 693000 M⁻¹ s⁻¹

B1: mouse mAb 12C1 (antibody, V domains shown)
VH: QVQLQESGPELVKPGASVKISCKASGYSFSDYNMSWVKQSNGKSLEWIGIIDPKYGTINYNQKFKGKATLTVDQASSTAYMQLNSLTSEDSAVYYCVRDYYGSSYFDYWGQGTTLTVSS
VL: DIVLTQSPSSIYASLGERVTLTCKASQDIHNYLNWFQQKPGKSPKTLIYRANRLVDGVPSRFSGGGSGQDYSLTISSLEFEDIGIYYCLQYDEFPPTFGGGTRLEIK
notes: also called mouse 12C1 mAb; source: Expi293, transient transfection, purified (MabSelect SuRe, SEC)
Q: B1 was tested. Which Kd (fHbp m000019 [2]) did it give?
A: 0.037 nM

B2: mAb 12C1 (mouse) (antibody, V domains shown)
VH: QVQLQESGPELVKPGASVKISCKASGYSFSDYNMSWVKQSNGKSLEWIGIIDPKYGTINYNQKFKGKATLTVDQASSTAYMQLNSLTSEDSAVYYCVRDYYGSSYFDYWGQGTTLTVSS
VL: DIVLTQSPSSIYASLGERVTLTCKASQDIHNYLNWFQQKPGKSPKTLIYRANRLVDGVPSRFSGGGSGQDYSLTISSLEFEDIGIYYCLQYDEFPPTFGGGTRLEIK
notes: source: Expi293, purified (MabSelect SuRe, SEC); copies: 2 + 2
Q: Which Kd (fHbp mutant 0012) does the source give for B2 here?
A: < 0.001 nM

Q: And the koff (fHbp mutant 0012)?
A: < 1e-07 s⁻¹

Q: What about the kon (fHbp mutant 0012) of the same molecule?
A: 599000 ± 21400 M⁻¹ s⁻¹

Q: And the Kd (fHbp mutant 0017)?
A: < 0.001 nM

Q: And the koff (fHbp mutant 0017)?
A: < 1e-07 s⁻¹

Q: What about the kon (fHbp mutant 0017) of the same molecule?
A: 359000 ± 10900 M⁻¹ s⁻¹

Q: What about the koff (fHbp m000019 [3]) of the same molecule?
A: 2.2e-05 s⁻¹

Q: And the kon (fHbp m000019 [3])?
A: 585000 ± 6100 M⁻¹ s⁻¹

Q: And the Kd (fHbp mutant 0018)?
A: < 0.001 nM

Q: What about the koff (fHbp mutant 0018) of the same molecule?
A: < 1e-07 s⁻¹

Q: What about the kon (fHbp mutant 0018) of the same molecule?
A: 397000 ± 13200 M⁻¹ s⁻¹

Q: What about the Kd [4] of the same molecule?
A: < 0.001 nM

Q: And the koff [4]?
A: < 1e-07 s⁻¹

Q: What about the kon [4] of the same molecule?
A: 796000 ± 15600 M⁻¹ s⁻¹

Q: What about the Kd (fHbp mutant 0015) of the same molecule?
A: < 0.001 nM

Q: And the koff (fHbp mutant 0015)?
A: < 1e-07 s⁻¹

Q: And the kon (fHbp mutant 0015)?
A: 386000 ± 44100 M⁻¹ s⁻¹

Q: And the Kd (fHbp mutant 0016)?
A: < 0.001 nM

Q: And the koff (fHbp mutant 0016)?
A: < 1e-07 s⁻¹

Q: And the kon (fHbp mutant 0016)?
A: 101000 ± 20700 M⁻¹ s⁻¹

Q: What about the Kd (fHbp mutant 0014) of the same molecule?
A: < 0.001 nM

Q: What about the koff (fHbp mutant 0014) of the same molecule?
A: < 1e-07 s⁻¹

Q: And the kon (fHbp mutant 0014)?
A: 809000 ± 12500 M⁻¹ s⁻¹

B3: mouse mAb JAR5 (antibody, V domains shown)
VH: QVQMQQPGAELVKPGASVKLSCKASGYTFISYWMHWVKQRPGRGLEWIGRIAPDTGIIYYNEKFKNKATLTVDTPSSTAYMQLNSLTSEDSAVYYCARYLKYDGSTYRFDYWGQGTTLTVSS
VL: DIVMTQAAPSVPVTPGESVSISCRSSKSLLHSNGNTYLFWFLQRPGQSPQLLIYRMSNLASGVPDRFSGSGSGTSFTLRISRVEAEDVGVYYCMQHLEYPYTFGGGTKLEIK
notes: also called mouse JAR5 mAb; source: Expi293, transient transfection, purified (MabSelect SuRe, SEC)
Q: For B3, which Kd (fHbp m000019 [2]) is on record?
A: 0.254 nM

B4: mAb JAR5 (mouse) (antibody, V domains shown)
VH: QVQMQQPGAELVKPGASVKLSCKASGYTFISYWMHWVKQRPGRGLEWIGRIAPDTGIIYYNEKFKNKATLTVDTPSSTAYMQLNSLTSEDSAVYYCARYLKYDGSTYRFDYWGQGTTLTVSS
VL: DIVMTQAAPSVPVTPGESVSISCRSSKSLLHSNGNTYLFWFLQRPGQSPQLLIYRMSNLASGVPDRFSGSGSGTSFTLRISRVEAEDVGVYYCMQHLEYPYTFGGGTKLEIK
notes: as for B2
Q: What does the source list for B4?
A: Kd (fHbp mutant 0012): 0.418 nM; Kd (fHbp mutant 0017): 0.0297 nM; Kd (fHbp mutant 0018): 0.404 nM; Kd (fHbp mutant 0015): 0.209 nM; Kd (fHbp mutant 0014): 0.211 nM
